Biological target: T1, His-tagged human TSLP antigen (huTSLP-his) (human)
T1 construct: Secreted from HEK293E and purified on nickel; whole entry named; also called Human TSLP-his
Assay: ELISA, coated huTSLP-his;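 note: binding of antibodies to plate-bound TSLP read as absorbance at 450 nm after TMB colour development, EC50 derived from binding curves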
Experimental: The plate was incubated at 4° C. overnight. After the liquid was discarded, 5% skim milk (skim milk powder from Brightdairy) blocking solution diluted with PBS was added at 200 μL/well, and the plate was incubated in an incubator at 37° C. for 2 h for blocking. After the blocking, the blocking solution was discarded, and the plate was washed 3 times with a PBST buffer (PBS containing 0.1% (v/v) tween-20, pH 7.4). […] After the incubation, the plate was washed 3 times with PBST. […] After the plate was washed 6 times with PBST, a TMB chromogenic substrate (KPL, 52-00-03) was added at 50 μL/well, and the plate was incubated at room temperature for 10-15 min. Then, 1 M H₂SO₄ was added at 50 μL/well to stop the reaction. The absorbance at 450 nm was read with a NOVOStar microplate reader, and the EC₅₀ values for the binding of the TSLP antibodies to TSLP were calculated.

Row | EC50 [nM] | Binder
1 | 0.341 | hu119-20 (antibody, human IgG1, kappa, IgG1-YTE, kappa) heavy: EAQLVQSGAEVKKPGSSVKVSCKASGFTFSTYNMHWVRQAPGQGLEWIGAIYPGNGETSYNQKFKDRATLTVDKSTSTAYMELSSLRSEDTAVYYCAREDDYGEGYFDVWGQGTTVTVSSASTKGPSVFPLAPSSKSTSGGTAALGCLVKDYFPEPVTVSWNSGALTSGVHTFPAVLQSSGLYSLSSVVTVPSSSLGTQTYICNVNHKPSNTKVDKKVEPKSCDKTHTCPPCPAPELLGGPSVFLFPPKPKDTLYITREPEVTCVVVDVSHEDPEVKFNWYVDGVEVHNAKTKPREEQYNSTYRVVSVLTVLHQDWLNGKEYKCKVSNKALPAPIEKTISKAKGQPREPQVYTLPPSRDELTKNQVSLTCLVKGFYPSDIAVEWESNGQPENNYKTTPPVLDSDGSFFLYSKLTVDKSRWQQGNVFSCSVMHEALHNHYTQKSLSLSPGK light: EIVLTQSPATLSLSPGERATLSCRASESVDNSGLSFMHWYQQKPGQPPRLLLYRASNLGSGIPARFSGSGSGTDFTLTISSLEPEDFAVYYCQQINTDPLTFGQGTKLEIKRTVAAPSVFIFPPSDEQLKSGTASVVCLLNNFYPREAKVQWKVDNALQSGNSQESVTEQDSKDSTYSLSSTLTLSKADYEKHKVYACEVTHQGLSSPVTKSFNRGEC
2 | 0.351 | hu119-17 (antibody, human IgG1, kappa, V domains shown, IgG1-YTE, kappa) VH: EAQLVQSGAEVKKPGSSVKVSCKASGFTFSTYNMHWVRQAPGQGLEWIGAIYPGNGETSYNQKFKDRATLTVDKSTRTAYMELSSLRSEDTAVYYCAREDDYGEGYFDVWGQGTTVTVSS VL: EIVLTQSPATLSLSPGERATLSCRASESVDNSGLSFMHWYQQKPGQAPRLLIYRASNLGSGIPARFSGSGSGTDFTLTISSLEPEDFAVYYCQQINTDPLTFGQGTKLEIKR
3 | 0.345 | hu119-14 (antibody, human IgG1, kappa, V domains shown, IgG1-YTE, kappa) VH: EVQLVQSGAEVKKPGSSVKVSCKASGGTFSTYNMHWVRQAPGQGLEWIGAIYPGNGETSYNQKFKDRATLTVDKSTSTAYMELSSLRSEDTAVYYCAREDDYGEGYFDVWGQGTTVTVSS VL: EIVLTQSPATLSLSPGERATLSCRASESVDNSGLSFMHWYQQKPGQAPRLLIYRASNLGSGIPARFSGSGSGTDFTLTISSLEPEDFAVYYCQQINTDPLTFGQGTKLEIKR
4 | 0.366 | hu119-16 (antibody, human IgG1, kappa, V domains shown, IgG1-YTE, kappa) VH: EVQLVQSGAEVKKPGSSVKVSCKASGGTFSTYNMHWVRQAPGQGLEWIGAIYPGNGETSYNQKFKDRATLTVDKSTRTAYMELSSLRSEDTAVYYCAREDDYGEGYFDVWGQGTTVTVSS VL: EIVLTQSPATLSLSPGERATLSCRASESVDNSGLSFMHWYQQKPGQAPRLLIYRASNLGSGIPARFSGSGSGTDFTLTISSLEPEDFAVYYCQQINTDPLTFGQGTKLEIKR
5 | 0.378 | hu119-26 (antibody, human IgG1, kappa, IgG1-YTE, kappa) heavy: EVQLVQSGAEVKKPGSSVKVSCKASGGTFSTYNMHWVRQAPGQGLEWIGAIYPGNGETSYNQKFKDRATLTVDKSTRTAYMELSSLRSEDTAVYYCAREDDYGEGYFDVWGQGTTVTVSSASTKGPSVFPLAPSSKSTSGGTAALGCLVKDYFPEPVTVSWNSGALTSGVHTFPAVLQSSGLYSLSSVVTVPSSSLGTQTYICNVNHKPSNTKVDKKVEPKSCDKTHTCPPCPAPELLGGPSVFLFPPKPKDTLYITREPEVTCVVVDVSHEDPEVKFNWYVDGVEVHNAKTKPREEQYNSTYRVVSVLTVLHQDWLNGKEYKCKVSNKALPAPIEKTISKAKGQPREPQVYTLPPSRDELTKNQVSLTCLVKGFYPSDIAVEWESNGQPENNYKTTPPVLDSDGSFFLYSKLTVDKSRWQQGNVFSCSVMHEALHNHYTQKSLSLSPGK light: DIVLTQSPATLSLSPGERATLSCRASESVDNSGLSFMHWYQQKPGQPPRLLLYRASNLGSGIPARFSGSGSGTDFTLTISSLEPEDFAVYYCQQINTDPLTFGQGTKLEIKRTVAAPSVFIFPPSDEQLKSGTASVVCLLNNFYPREAKVQWKVDNALQSGNSQESVTEQDSKDSTYSLSSTLTLSKADYEKHKVYACEVTHQGLSSPVTKSFNRGEC
6 | 0.34 | hu119-23 (antibody, human IgG1, kappa, V domains shown, IgG1-YTE, kappa) VH: EVQLVQSGAEVKKPGSSVKVSCKASGFTFSTYNMHWVKHAPGQGLEWIGAIYPGNGETSYNQKFKDRATLTVDKSTSTAYMELSSLRSEDTAVYYCAREDDYGEGYFDVWGQGTTVTVSS VL: DIVLTQSPATLSLSPGERATLSCRASESVDNSGLSFMHWYQQKPGQPPRLLLYRASNLGSGIPARFSGSGSGTDFTLTISSLEPEDFAVYYCQQINTDPLTFGQGTKLEIKR
7 | 0.353 | hu119-19 (antibody, human IgG1, kappa, IgG1-YTE, kappa) heavy: EVQLVQSGAEVKKPGSSVKVSCKASGGTFSTYNMHWVRQAPGQGLEWIGAIYPGNGETSYNQKFKDRATLTVDKSTSTAYMELSSLRSEDTAVYYCAREDDYGEGYFDVWGQGTTVTVSSASTKGPSVFPLAPSSKSTSGGTAALGCLVKDYFPEPVTVSWNSGALTSGVHTFPAVLQSSGLYSLSSVVTVPSSSLGTQTYICNVNHKPSNTKVDKKVEPKSCDKTHTCPPCPAPELLGGPSVFLFPPKPKDTLYITREPEVTCVVVDVSHEDPEVKFNWYVDGVEVHNAKTKPREEQYNSTYRVVSVLTVLHQDWLNGKEYKCKVSNKALPAPIEKTISKAKGQPREPQVYTLPPSRDELTKNQVSLTCLVKGFYPSDIAVEWESNGQPENNYKTTPPVLDSDGSFFLYSKLTVDKSRWQQGNVFSCSVMHEALHNHYTQKSLSLSPGK light: EIVLTQSPATLSLSPGERATLSCRASESVDNSGLSFMHWYQQKPGQPPRLLLYRASNLGSGIPARFSGSGSGTDFTLTISSLEPEDFAVYYCQQINTDPLTFGQGTKLEIKRTVAAPSVFIFPPSDEQLKSGTASVVCLLNNFYPREAKVQWKVDNALQSGNSQESVTEQDSKDSTYSLSSTLTLSKADYEKHKVYACEVTHQGLSSPVTKSFNRGEC
8 | 0.345 | hu119-24 (antibody, human IgG1, kappa, IgG1-YTE, kappa) heavy: EVQLVQSGAEVKKPGSSVKVSCKASGGTFSTYNMHWVRQAPGQGLEWIGAIYPGNGETSYNQKFKDRATLTVDKSTSTAYMELSSLRSEDTAVYYCAREDDYGEGYFDVWGQGTTVTVSSASTKGPSVFPLAPSSKSTSGGTAALGCLVKDYFPEPVTVSWNSGALTSGVHTFPAVLQSSGLYSLSSVVTVPSSSLGTQTYICNVNHKPSNTKVDKKVEPKSCDKTHTCPPCPAPELLGGPSVFLFPPKPKDTLYITREPEVTCVVVDVSHEDPEVKFNWYVDGVEVHNAKTKPREEQYNSTYRVVSVLTVLHQDWLNGKEYKCKVSNKALPAPIEKTISKAKGQPREPQVYTLPPSRDELTKNQVSLTCLVKGFYPSDIAVEWESNGQPENNYKTTPPVLDSDGSFFLYSKLTVDKSRWQQGNVFSCSVMHEALHNHYTQKSLSLSPGK light: DIVLTQSPATLSLSPGERATLSCRASESVDNSGLSFMHWYQQKPGQPPRLLLYRASNLGSGIPARFSGSGSGTDFTLTISSLEPEDFAVYYCQQINTDPLTFGQGTKLEIKRTVAAPSVFIFPPSDEQLKSGTASVVCLLNNFYPREAKVQWKVDNALQSGNSQESVTEQDSKDSTYSLSSTLTLSKADYEKHKVYACEVTHQGLSSPVTKSFNRGEC
9 | 0.351 | hu119-22 (antibody, human IgG1, kappa, IgG1-YTE, kappa) heavy: EAQLVQSGAEVKKPGSSVKVSCKASGFTFSTYNMHWVRQAPGQGLEWIGAIYPGNGETSYNQKFKDRATLTVDKSTRTAYMELSSLRSEDTAVYYCAREDDYGEGYFDVWGQGTTVTVSSASTKGPSVFPLAPSSKSTSGGTAALGCLVKDYFPEPVTVSWNSGALTSGVHTFPAVLQSSGLYSLSSVVTVPSSSLGTQTYICNVNHKPSNTKVDKKVEPKSCDKTHTCPPCPAPELLGGPSVFLFPPKPKDTLYITREPEVTCVVVDVSHEDPEVKFNWYVDGVEVHNAKTKPREEQYNSTYRVVSVLTVLHQDWLNGKEYKCKVSNKALPAPIEKTISKAKGQPREPQVYTLPPSRDELTKNQVSLTCLVKGFYPSDIAVEWESNGQPENNYKTTPPVLDSDGSFFLYSKLTVDKSRWQQGNVFSCSVMHEALHNHYTQKSLSLSPGK light: EIVLTQSPATLSLSPGERATLSCRASESVDNSGLSFMHWYQQKPGQPPRLLLYRASNLGSGIPARFSGSGSGTDFTLTISSLEPEDFAVYYCQQINTDPLTFGQGTKLEIKRTVAAPSVFIFPPSDEQLKSGTASVVCLLNNFYPREAKVQWKVDNALQSGNSQESVTEQDSKDSTYSLSSTLTLSKADYEKHKVYACEVTHQGLSSPVTKSFNRGEC
10 | 0.357 | hu119-25 (antibody, human IgG1, kappa, IgG1-YTE, kappa) heavy: EAQLVQSGAEVKKPGSSVKVSCKASGFTFSTYNMHWVRQAPGQGLEWIGAIYPGNGETSYNQKFKDRATLTVDKSTSTAYMELSSLRSEDTAVYYCAREDDYGEGYFDVWGQGTTVTVSSASTKGPSVFPLAPSSKSTSGGTAALGCLVKDYFPEPVTVSWNSGALTSGVHTFPAVLQSSGLYSLSSVVTVPSSSLGTQTYICNVNHKPSNTKVDKKVEPKSCDKTHTCPPCPAPELLGGPSVFLFPPKPKDTLYITREPEVTCVVVDVSHEDPEVKFNWYVDGVEVHNAKTKPREEQYNSTYRVVSVLTVLHQDWLNGKEYKCKVSNKALPAPIEKTISKAKGQPREPQVYTLPPSRDELTKNQVSLTCLVKGFYPSDIAVEWESNGQPENNYKTTPPVLDSDGSFFLYSKLTVDKSRWQQGNVFSCSVMHEALHNHYTQKSLSLSPGK light: DIVLTQSPATLSLSPGERATLSCRASESVDNSGLSFMHWYQQKPGQPPRLLLYRASNLGSGIPARFSGSGSGTDFTLTISSLEPEDFAVYYCQQINTDPLTFGQGTKLEIKRTVAAPSVFIFPPSDEQLKSGTASVVCLLNNFYPREAKVQWKVDNALQSGNSQESVTEQDSKDSTYSLSSTLTLSKADYEKHKVYACEVTHQGLSSPVTKSFNRGEC
11 | 0.35 | hu119-15 (antibody, human IgG1, kappa, V domains shown, IgG1-YTE, kappa) VH: EAQLVQSGAEVKKPGSSVKVSCKASGFTFSTYNMHWVRQAPGQGLEWIGAIYPGNGETSYNQKFKDRATLTVDKSTSTAYMELSSLRSEDTAVYYCAREDDYGEGYFDVWGQGTTVTVSS VL: EIVLTQSPATLSLSPGERATLSCRASESVDNSGLSFMHWYQQKPGQAPRLLIYRASNLGSGIPARFSGSGSGTDFTLTISSLEPEDFAVYYCQQINTDPLTFGQGTKLEIKR
12 | 0.399 | hu119-21 (antibody, human IgG1, kappa, IgG1-YTE, kappa) heavy: EVQLVQSGAEVKKPGSSVKVSCKASGGTFSTYNMHWVRQAPGQGLEWIGAIYPGNGETSYNQKFKDRATLTVDKSTRTAYMELSSLRSEDTAVYYCAREDDYGEGYFDVWGQGTTVTVSSASTKGPSVFPLAPSSKSTSGGTAALGCLVKDYFPEPVTVSWNSGALTSGVHTFPAVLQSSGLYSLSSVVTVPSSSLGTQTYICNVNHKPSNTKVDKKVEPKSCDKTHTCPPCPAPELLGGPSVFLFPPKPKDTLYITREPEVTCVVVDVSHEDPEVKFNWYVDGVEVHNAKTKPREEQYNSTYRVVSVLTVLHQDWLNGKEYKCKVSNKALPAPIEKTISKAKGQPREPQVYTLPPSRDELTKNQVSLTCLVKGFYPSDIAVEWESNGQPENNYKTTPPVLDSDGSFFLYSKLTVDKSRWQQGNVFSCSVMHEALHNHYTQKSLSLSPGK light: EIVLTQSPATLSLSPGERATLSCRASESVDNSGLSFMHWYQQKPGQPPRLLLYRASNLGSGIPARFSGSGSGTDFTLTISSLEPEDFAVYYCQQINTDPLTFGQGTKLEIKRTVAAPSVFIFPPSDEQLKSGTASVVCLLNNFYPREAKVQWKVDNALQSGNSQESVTEQDSKDSTYSLSSTLTLSKADYEKHKVYACEVTHQGLSSPVTKSFNRGEC

Source: patent US20240016931A1 (JIANGSU HENGRUI PHARMACEUTICALS, published 2024)
